Reference: publication PMC3725505 (Scientific Reports, 2013)
Ends that are not written are not given here.

Molecular target: Kelch domain of human Keap1 (residues 321-609) (human, UniProt Q14145 321-609)
Experiment: ITC

Sequence of Kelch domain of human Keap1 (residues 321-609) (Q14145 321-609): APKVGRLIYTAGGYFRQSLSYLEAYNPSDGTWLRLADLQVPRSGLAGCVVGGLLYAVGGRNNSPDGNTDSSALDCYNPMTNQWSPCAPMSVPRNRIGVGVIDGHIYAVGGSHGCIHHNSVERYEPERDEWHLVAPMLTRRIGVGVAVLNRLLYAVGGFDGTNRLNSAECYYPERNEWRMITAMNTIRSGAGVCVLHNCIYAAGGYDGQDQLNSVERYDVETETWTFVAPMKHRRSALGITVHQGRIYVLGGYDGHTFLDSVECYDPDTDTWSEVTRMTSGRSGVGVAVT

dH: -10.8 ± 0.14 kcal/mol
B1: WTX pS286 peptide (20-mer, S286 phosphorylated) (peptide)
chain: SLEEPHSPETGEKVVAGEVN
modifications: also: phosphoserine (S286), position in chain not placed
